The results in this text go back to ChEMBL document CHEMBL1124237, “Linear free energy relationship studies of enzyme active site binding: thymidylate synthase” (J Med Chem, 1988).

Substrate in data set [1]: O=c1[nH]c(=O)n([C@H]2C[C@H](O)[C@@H](COP(=O)(O)O)O2)cc1-c1ccc(O)cc1
The conditions noted are these: Homo sapiens.
Description: (§1) Inhibitory effect on human lymphoblast (Molt/4F) thymidylate synthase

Substrate in data set [2]: NC(=O)c1ccc(-c2cn([C@H]3C[C@H](O)[C@@H](COP(=O)(O)O)O3)c(=O)[nH]c2=O)cc1
The conditions noted are these: Homo sapiens.
Description: as §1

Substrate in data set [3]: COC(=O)c1ccc(-c2cn([C@H]3C[C@H](O)[C@@H](COP(=O)(O)O)O3)c(=O)[nH]c2=O)cc1
The conditions noted are these: Homo sapiens.
Description: as §1

Substrate in data set [4]: N#Cc1ccc(-c2cn([C@H]3C[C@H](O)[C@@H](COP(=O)(O)O)O3)c(=O)[nH]c2=O)cc1
The conditions noted are these: Homo sapiens.
Description: as §1

Substrate in data set [5]: O=c1[nH]c(=O)n([C@H]2C[C@H](O)[C@@H](COP(=O)(O)O)O2)cc1-c1ccc(O)cc1
The conditions noted are these: Lacticaseibacillus casei.
Description: (§2) Inhibitory effect against Lactobacillus casei thymidylate synthase

Substrate in data set [6]: NC(=O)c1ccc(-c2cn([C@H]3C[C@H](O)[C@@H](COP(=O)(O)O)O3)c(=O)[nH]c2=O)cc1
The conditions noted are these: Lacticaseibacillus casei.
Description: as §2

Substrate in data set [7]: COC(=O)c1ccc(-c2cn([C@H]3C[C@H](O)[C@@H](COP(=O)(O)O)O3)c(=O)[nH]c2=O)cc1
The conditions noted are these: Lacticaseibacillus casei.
Description: as §2

Substrate in data set [8]: N#Cc1ccc(-c2cn([C@H]3C[C@H](O)[C@@H](COP(=O)(O)O)O3)c(=O)[nH]c2=O)cc1
The conditions noted are these: Lacticaseibacillus casei.
Description: as §2

Substrate in data set [9]: O=c1[nH]c(=O)n([C@H]2C[C@H](O)[C@@H](COP(=O)(O)O)O2)cc1-c1ccc(O)cc1
The conditions noted are these: Mus musculus.
Description: (§3) Inhibitory effect on murine leukemia (L1210) thymidylate synthase

Substrate in data set [10]: NC(=O)c1ccc(-c2cn([C@H]3C[C@H](O)[C@@H](COP(=O)(O)O)O3)c(=O)[nH]c2=O)cc1
The conditions noted are these: Mus musculus.
Description: as §3

Substrate in data set [11]: COC(=O)c1ccc(-c2cn([C@H]3C[C@H](O)[C@@H](COP(=O)(O)O)O3)c(=O)[nH]c2=O)cc1
The conditions noted are these: Mus musculus.
Description: as §3

Substrate in data set [12]: N#Cc1ccc(-c2cn([C@H]3C[C@H](O)[C@@H](COP(=O)(O)O)O3)c(=O)[nH]c2=O)cc1
Description: as §3
The conditions noted are these: Mus musculus.

B1: Thymidylate synthase (Homo sapiens), P04818 (protein)
chain: MPVAGSELPRRPLPPAAQERDAEPRPPHGELQYLGQIQHILRCGVRKDDRTGTGTLSVFGMQARYSLRDEFPLLTTKRVFWKGVLEELLWFIKGSTNAKELSSKGVKIWDANGSRDFLDSLGFSTREEGDLGPVYGFQWRHFGAEYRDMESDYSGQGVDQLQRVIDTIKTNPDDRRIIMCAWNPRDLPLMALPPCHALCQFYVVNSELSCQLYQRSGDMGLGVPFNIASYALLTYMIAHITGLKPGDFIHTLGDAHIYLNHIEPLKIQLQREPRPFPKLRILRKVEKIDDFKAEDFQIEGYNPHPTIKMEMAV
With B1, the Michaelis constant (Km) – broadly, the substrate concentration at which the rate is half of its maximum – in data set [1] was 1.54 µM; in data set [2], 1.48 µM; in [3], 1.38 µM; in data set [4] it was 1.51 µM.

B2: Thymidylate synthase (Lactobacillus casei), P00469 (protein)
chain: MLEQPYLDLAKKVLDEGHFKPDRTHTGTYSIFGHQMRFDLSKGFPLLTTKKVPFGLIKSELLWFLHGDTNIRFLLQHRNHIWDEWAFEKWVKSDEYHGPDMTDFGHRSQKDPEFAAVYHEEMAKFDDRVLHDDAFAAKYGDLGLVYGSQWRAWHTSKGDTIDQLGDVIEQIKTHPYSRRLIVSAWNPEDVPTMALPPCHTLYQFYVNDGKLSLQLYQRSADIFLGVPFNIASYALLTHLVAHECGLEVGEFIHTFGDAHLYVNHLDQIKEQLSRTPRPAPTLQLNPDKHDIFDFDMKDIKLLNYDPYPAIKAPVAV
For B2, the Km in data set [5] is 4.8 µM; in [6] it was 4.01 µM; in data set [7] it was 4.19 µM; in [8] it was 4.37 µM.

B3: Thymidylate synthase (Mus musculus), P07607 (protein)
chain: MLVVGSELQSDAQQLSAEAPRHGELQYLRQVEHILRCGFKKEDRTGTGTLSVFGMQARYSLRDEFPLLTTKRVFWKGVLEELLWFIKGSTNAKELSSKGVRIWDANGSRDFLDSLGFSARQEGDLGPVYGFQWRHFGAEYKDMDSDYSGQGVDQLQKVIDTIKTNPDDRRIIMCAWNPKDLPLMALPPCHALCQFYVVNGELSCQLYQRSGDMGLGVPFNIASYALLTYMIAHITGLQPGDFVHTLGDAHIYLNHIEPLKIQLQREPRPFPKLKILRKVETIDDFKVEDFQIEGYNPHPTIKMEMAV
Regarding B3, the Km in data set [9] was determined as 1.28 µM; in data set [10], 1.28 µM; in data set [11], 1.28 µM; in [12] it was 1.27 µM.
